Data set [1] has as its target T1, TBP (TATA-binding protein) (UniProt P13393 P13393:1-240).
T1 sequence: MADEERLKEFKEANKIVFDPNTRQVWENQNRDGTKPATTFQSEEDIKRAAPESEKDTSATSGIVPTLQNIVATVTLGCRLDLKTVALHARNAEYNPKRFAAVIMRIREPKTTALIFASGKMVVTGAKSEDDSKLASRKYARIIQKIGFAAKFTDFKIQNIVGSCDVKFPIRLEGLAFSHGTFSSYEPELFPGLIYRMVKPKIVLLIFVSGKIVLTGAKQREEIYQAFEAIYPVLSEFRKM
Nature of the data set: filter; AptTBP-101 Kd stated to be similar to that of AptTBP-12 complex; binds DNA-binding surface and competes with TATA-DNA (p252).

Data set [2] addresses T2, B52 (SR protein), full-length (UniProt P26686 P26686:2-350). As to the kind of experiment: Western blot with HRP-streptavidin; 15 mM MgCl2. The following applies: tags: baculovirus expressed; two fused three-way junctions, two BBS and two S1 aptamers. As to the method:
(§1) Western blot analysis for antibodies was performed according to a standard protocol (Harlow et al., Using Antibodies: A Laboratory Manual. Cold Spring Harbor, Cold Spring Harbor Laboratory Press (1999), which is hereby incorporated by reference in its entirety). For the aptabodies, proteins were separated on 8% SDS-PAGE and transferred to nitrocellulose membrane according to the aforementioned standard protocol. Subsequent steps were also identical except the following substitutions. The RNA aptabody B-S (FIG. 5A) (10 μg/ml) and horseradish peroxidase conjugated streptavidin (1 μg/ml) were used to replace the primary and secondary antibodies. […]
(§2) First, a Western blot analysis was conducted with the aptabodies and a monoclonal antibody against B52. The sample to be analyzed contained a full-length B52 produced from a baculovirus expression system, a His-tagged B52 deletion construct that contained the two RNA recognition motifs recognized by the aptamers and the monoclonal antibody By32 (Champlin et al., “Characterization of a Drosophila Protein Associated with Boundaries of Transcriptionally Active Chromatin,” Genes and Development 5:1611-1621 (1991), which is hereby incorporated by reference in its entirety), and a His-tagged Drosophila heat shock factor as control. […]
On the technique in general: In western blotting, separated proteins are transferred to a membrane and probed.

Data set [3] concerns the target T3, B52 RRMs (two RNA recognition motifs) (UniProt P26686 P26686:4-188). Nature of the data set: Western blot and dot blot; as low as 1 ng protein detected. The following applies: tags: His; two fused three-way junctions, two BBS and two S1 aptamers. The procedure: as §1, §2
The target in data set [4] is T4, Streptavidin (UniProt P22629 P22629:25-183). Nature of the data set: streptavidin conjugates as secondary reagent in Western, dot blot and immunofluorescence. The following applies: tags: ImmunoPure streptavidin, Pierce; HRP or Texas Red conjugates in immunoassays; chain copies: 4; two fused three-way junctions, two BBS and two S1 aptamers.
Data set [5] concerns the target T4, Streptavidin. As to the kind of experiment: EMSA; reduced S1 retains full activity. The following applies: tags: ImmunoPure streptavidin, Pierce; HRP or Texas Red conjugates in immunoassays; chain copies: 4. As to the method:
All binding assays were performed in 20 μl volume. The binding buffer contains 50 mM Tris-Cl (pH 7.4), 100 mM NaCl, 15 mM MgCl₂, 10% glycerol, and 1 mM DTT. A typical binding assay using labeled RNA contains about 20 fmole of ³²P-labeled RNA probe and different amounts (1-10 pmole, indicated by L and H in FIG. 5B) of protein or non-labled RNA. The reactions were allowed to equilibrate for 15-20 minutes at ambient temperature before being subjected to EMSA.
For BBS-B52 interaction, EMS assay was performed at 4° C. The binding reaction mixtures were set at 4° C. for 5-10 minutes before being loaded onto a 2.5% agarose gel in ¼ TBE buffer. For the streptavidin aptamers and the TAR aptamers, EMSA were performed at ambient temperature with 6% or 12% native polyacrylamide gel run in TG buffer (25 mM Tris base, 200 mM glycine, and 5 mM MgCl₂).
On the technique in general: Mobility shift assays separate free from complexed probe on a gel.

Data set [6] deals with T4, Streptavidin. As to the kind of experiment: T-S secondary aptabody detected by HRP-streptavidin. The following applies: tags: ImmunoPure streptavidin, Pierce; HRP or Texas Red conjugates in immunoassays; chain copies: 4; two fused three-way junctions, two TAR-Mal and two S1 modules. As to the method:
as §1, §2

Data set [7] concerns the target T4, Streptavidin. As to the kind of experiment: original aptamer used as reference in deletion analysis. The following applies: tags: ImmunoPure streptavidin, Pierce; HRP or Texas Red conjugates in immunoassays; chain copies: 4.
The target of a further data set is T5, HSF (heat shock factor) (UniProt P22813 P22813:1-691).
T5 sequence: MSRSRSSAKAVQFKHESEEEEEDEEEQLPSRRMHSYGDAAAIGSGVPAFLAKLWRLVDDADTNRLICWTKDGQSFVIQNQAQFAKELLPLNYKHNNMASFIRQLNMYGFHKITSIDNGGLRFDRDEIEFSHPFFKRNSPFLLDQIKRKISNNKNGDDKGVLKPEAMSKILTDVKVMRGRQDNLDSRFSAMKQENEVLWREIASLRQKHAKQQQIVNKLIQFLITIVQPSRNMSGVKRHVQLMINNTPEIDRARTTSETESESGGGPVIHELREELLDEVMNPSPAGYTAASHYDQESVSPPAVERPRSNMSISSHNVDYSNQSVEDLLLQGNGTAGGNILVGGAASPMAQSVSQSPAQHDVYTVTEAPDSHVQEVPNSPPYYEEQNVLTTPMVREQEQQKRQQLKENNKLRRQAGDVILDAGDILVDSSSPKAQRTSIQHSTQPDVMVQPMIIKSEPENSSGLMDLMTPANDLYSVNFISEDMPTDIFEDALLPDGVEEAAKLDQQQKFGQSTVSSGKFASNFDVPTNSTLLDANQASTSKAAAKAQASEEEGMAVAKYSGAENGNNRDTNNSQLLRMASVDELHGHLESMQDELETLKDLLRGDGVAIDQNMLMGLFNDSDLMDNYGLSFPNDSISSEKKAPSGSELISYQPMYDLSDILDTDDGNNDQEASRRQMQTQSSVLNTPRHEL
Nature of the data set: EMSA; affinity measured, value only in figure. The following applies: tags: His; three-way junction.

The target in data set [8] is T2, B52 (SR protein), full-length. Nature of the data set: Western blot with B-R then T-S then HRP-streptavidin. The following applies: tags: baculovirus expressed; two fused three-way junctions, two BBS and two R-06 modules. As to the method: as §1, §2
Data set [9] concerns the target T3, B52 RRMs (two RNA recognition motifs). The description is as above. The following applies: tags: His; two fused three-way junctions, two BBS and two R-06 modules. The procedure:
as §1, §2

For data set [10], the target named is T1, TBP (TATA-binding protein). As to the kind of experiment: filter. The following applies: three-way junction with asymmetric internal loop and apical loop.
Data set [11] concerns the target T1, TBP (TATA-binding protein). As to the kind of experiment: reduced form fully retained binding; used to mask DNA-binding surface of TBP.

9 molecules from patent publication US20050282190, “Modular design and construction of nucleic acid molecules, aptamer-derived nucleic acid constructs, RNA scaffolds, their expression, and methods of use” (published 2005) can be followed below.

T4 sequence (P22629 25-183, one chain of several): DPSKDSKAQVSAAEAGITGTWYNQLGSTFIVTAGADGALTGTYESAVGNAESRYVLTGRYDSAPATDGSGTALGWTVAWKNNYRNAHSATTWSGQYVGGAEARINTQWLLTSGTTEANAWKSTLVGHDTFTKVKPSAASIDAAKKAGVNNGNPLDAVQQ
T2 sequence (P26686 other isoform, or with tags, fused parts or gaps): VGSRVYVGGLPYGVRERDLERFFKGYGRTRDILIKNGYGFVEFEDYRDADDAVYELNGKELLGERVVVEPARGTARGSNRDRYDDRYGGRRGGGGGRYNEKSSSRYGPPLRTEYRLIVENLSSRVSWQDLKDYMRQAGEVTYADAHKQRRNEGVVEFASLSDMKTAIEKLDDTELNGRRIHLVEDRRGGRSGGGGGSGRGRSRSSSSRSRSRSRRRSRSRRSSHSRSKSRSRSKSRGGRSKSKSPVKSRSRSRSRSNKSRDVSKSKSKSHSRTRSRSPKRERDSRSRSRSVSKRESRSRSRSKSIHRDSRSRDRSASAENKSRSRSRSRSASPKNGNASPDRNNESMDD
T3 sequence (P26686 other isoform, or with tags, fused parts or gaps): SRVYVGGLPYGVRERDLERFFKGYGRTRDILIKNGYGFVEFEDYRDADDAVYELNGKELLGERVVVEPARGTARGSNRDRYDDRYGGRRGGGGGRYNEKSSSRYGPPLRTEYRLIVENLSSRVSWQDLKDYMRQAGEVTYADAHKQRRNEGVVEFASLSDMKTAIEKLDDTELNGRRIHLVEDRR

B1: AptTBP-12 (ssRNA)
RNA: GGGAGAAUUCAACUGCCAUCUAGGCGCCGUGCCCGGUUUGGAUAGGCACAUAAGACGCCGACAAAGAAACCAACCAGUACUACAAGCUUCUGGACUCGGU
Take B1: the Kd (usually the equilibrium constant for the complex coming apart) in data set [1] was ~2 nM.

B2: aptabody B-S (ssRNA)
RNA: GGGAUCGCCGCGGCUGGUCAACCAGGCGACCGCCGCGGCCACAGCGGUGGGCUGGUCAACCAGGCGACCGCCCACCAGCGUUCCCGGAUCCGUGACCGACCAGAAUCAUGCAAGUGCGUAAGAUAGUCGCGGGUCGGGUCAUACUCCCGGCCAGAAUCAUGCAAGUGCGUAAGAUAGUCGCGGGCCGGGAGGCGGAUUC
Turning to B2, the binding result (in data set [2]; in [3]; with Streptavidin [4]) was “binds” each time.

As to GGGACCGACCAGAAUCAUGCAAGUGCGUAAGAUAGUCGCGGGCCGGG (ssRNA) [S1 con], the binding result in the data set with Streptavidin [5] is recorded as “binds”.

B3: aptabody T-S (ssRNA)
RNA: GGGAUCGCCGCCGAGCCCGGGAGCUCGGCGGCCACAGCGGUGGGAGCCCGGGAGCUCCCACCAGCGUUCCCGGAUCCGUGACCGACCAGAAUCAUGCAAGUGCGUAAGAUAGUCGCGGGUCGGGUCAUACUCCCGGCCAGAAUCAUGCAAGUGCGUAAGAUAGUCGCGGGCCGGGAGGCGGAUUC
On to B3, for which the binding result with Streptavidin [6] is “binds”.

B4: S1 (ssRNA)
RNA: GGGAGUCGACCGACCAGAAUCAUGCAAGUGCGUAAGAUAGUCGCGGGCCGGGGGCGUAUUAUGUGCGUCUACAUCUAGACUCAU
As for B4, the binding result in the data set with Streptavidin [7] was “binds”.

B5: RA1-HSF (ssRNA)
RNA: GGGAGAAUUCAACUGCCAUCUAGGCAUCGCGAUACAAAAUUAAGUUGAACGCGAGUUCUCCAUCUAGUACUACAAGCUUCUGGACUCGGU
As for B5, the binding result with HSF (heat shock factor) is “binds”.

B6: aptabody B-R (ssRNA)
RNA: GGGAUCGCCGCGGCUGGUCAACCAGGCGACCGCCGCGGCCACAGCGGUGGGCUGGUCAACCAGGCGACCGCCCACCAGCGUUCCCGGAUCCGUGACGUCAACACGGUCCCGGACGUGUUGACGUCCAUACUCCUCAACACGGUCCCGGACGUGUUGAGGAGGCGGAUUC
Turning to B6, the binding result in data set [8] and in [9] was “binds” in each case.

B7: AptTBP-101 (ssRNA)
RNA: GGGAGAAUUCAACUGCCAUCUAGGCAGCCAAGGUAAACAAUUCAGUUAGUGGAAUGAAACUGCCCAACACCAGAAGUACUACAAGCUUCUGGACUCGGU
B7 had a Kd in data set [10] of 2 nM.

Take GGCGCCGUGCCCGGUUUGGAUAGGCACAUAAGACGCC (ssRNA) [m12 (mini AptTBP-12)]: in [11], the binding result is listed as “binds”.
